One substance from patent US20190315837A1 can be followed below.

The test addresses His-tagged human Her2/Neu protein (Her2-His) (human) (UniProt P04626). The test can be described thus: Octet (BLI), Her2-His on penta-His biosensor, antibody in solution.

Bounds are passed on as bounds.

human IgG1 control (antibody) came in with a dissociation constant Kd of under 1 pM, an off-rate (koff) of under 1e-07 s⁻¹ and a kon of 1.04e+06 M⁻¹ s⁻¹.
